In PMC1249579, “RLIP76, a non-ABC transporter, and drug resistance in epilepsy” (BMC Neuroscience, 2005) one finds Km data, which are given here for 1 protein.

The term Km denotes the substrate concentration at which the rate is half of its maximum.

Assay in all cases: purified protein
What all share (format): biochemical, Homo sapiens

Substrate in data set [1]: NC(=O)N1c2ccccc2C=Cc2ccccc21
The note with it: ATP held constant, ATP-dependent transport, MgCl2, pH 7.4, labelled compound.

Substrate in data set [2]: O=C1NC(=O)C(c2ccccc2)(c2ccccc2)N1
The note with it: ATP held constant, ATP-dependent transport, MgCl2, pH 7.4, labelled compound.

Substrate in data set [3]: Nc1ncnc2c1ncn2[C@@H]1O[C@H](COP(=O)(O)OP(=O)(O)OP(=O)(O)O)[C@@H](O)[C@H]1O
The note with it: co-substrate phenytoin held constant, MgCl2, pH 7.4.

B1: RLIP76 (Homo sapiens) (protein)
chain: MTECFLPPTSSPSEHRRVEHGSGLTRTPSSEEISPTKFPGLYRTGEPSPPHDILHEPPDVVSDDEKDHGKKKGKFKKKEKRTEGYAAFQEDSSGDEAESPSKMKRSKGIHVFKKPSFSKKKEKDFKIKEKPKEEKHKEEKHKEEKHKEKKSKDLTAADVVKQWKEKKKKKKPIQEPEVPQIDVPNLKPIFGIPLADAVERTMMYDGIRLPAVFRECIDYVEKYGMKCEGIYRVSGIKSKVDELKAAYDREESTNLEDYEPNTVASLLKQYLRDLPENLLTKELMPRFEEACGRTTETEKVQEFQRLLKELPECNYLLISWLIVHMDHVIAKELETKMNIQNISIVLSPTVQISNRVLYVFFTHVQELFGNVVLKQVMKPLRWSNMATMPTLPETQAGIKEEIRRQEFLLNCLHRDLQGGIKDLSKEERLWEVQRILTALKRKLREAKRQECETKIAQEIASLSKEDVSKEEMNENEEVINILLAQENEILTEQEELLAMEQFLRRQIASEKEEIERLRAEIAEIQSRQQHGRSETEEYSSESESESEDEEELQIILEDLQRQNEELEIKNNHLNQAIHEEREAIIELRVQLRLLQMQRAKAEQQAQEDEEPEWRGGAVQPPRDGVLEPKAAKEQPKAGKEPAKPSPSRDRKETSI
notes: pET30a(+), E. coli BL21(DE3); reconstituted in asolectin-cholesterol liposomes
For B1, the Km in the data set “purified protein [1]” was 0.25 µM; in the data set “purified protein [2]”, 0.43 µM; in the data set “purified protein [3]” it was 1.33 mM.
